Laboratory results published in patent US20250257332A1, “TRUNCATED AND FUSION PROTEINS” (Monash University, priority 2021, published 2025).
“Also recorded” adds a separate entry of the source.

Assays:
[1] = test system: needle-stab muscle injury in zebrafish larvae; assay: Larval zebrafish muscle injury and EdU pulse-chase; format: in vivo; details: 57 nM in Ringer's solution immediately after injury at 4 dpf; EdU at 2 dpi
Protocol: Zebrafish larvae (4 dpf) were anaesthetized in 0.01% tricaine (MS-222) (Sigma-Aldrich) in Ringer's solution. Needle-stab injury was carried out in the dorsal myotome, consisting in a single 30-gauge needle puncture that generates an extensive injury with many damaged muscle fibres. Nampt fragment treatments were carried out by incubating 4 dpf needle-stab-injured larvae in 57 nM Nampt in Ringer's solution immediately after injury. Needle-stab-injured larvae at 6 dpf (2 dpi) were transferred into Ringer's solution containing 50 μg ml-1 EdU (Thermo Fisher Scientific) for 1 h and chased for a further 1.5 h before fixation. Samples were developed using the Click-iT EdU Alexa Fluor 647 imaging Kit (Thermo Fisher Scientific) following the manufacturer's protocol, followed by a phalloidin immunostaining (Thermo Fisher Scientific). EdU+ cells in a region encompassing two myotomes on either side of the injury were quantified as the number of EdU+ cells outside the injury region. EdU+ cells in the caudal haematopoietic tissue were excluded from this analysis. Statistical analysis has been conducted using Two-way ANOVA with Tuckey's multiple comparison test.

[2] = test system: Human primary satellite cells; assay: Human primary satellite cell proliferation, CyQuant; format: cell-based; details: 20 nM; 48 hours; media with IGF-1 and FGF-2
Protocol: (§1) FIG. 8. Human NAMPT variants stimulate human satellite cell proliferation. Human primary satellite cells were treated with 20 nM full length NAMPT (NAMPT) or NAMPT variants (NAMPTxxx-xxx, where xxx are amino acid numbers) for 48 hours. The media contained the growth factors IGF-1 and FGF-2 as well. Quantification of cell proliferation was performed using CyQuant Proliferation Assay kit. […] Treatment with 20% FBS was used as a positive control. Box and whiskers denote median with minimum and maximum values. n=6-10 independent experiments per protein. Statistical significance is indicated as p-value and determined by one-sample t-test.
The inventors next sought to compare the activity of full length NAMPT, NAMPT402-491 and NAMPT422-491 on human satellite cell proliferation. Human primary satellite cells were treated with 20 nM full length NAMPT (NAMPT) or NAMPT402-491 and NAMPT422-491 for 48 hours.

recombinant mouse CCR5 = target: T1, recombinant mouse CCR5 (Mus musculus, UniProt P51682); assay: NAMPT competitive binding to CCR5 (ELISA)
T1 construct: purchased MyBioSource
Protocol: hrNAMPT competitive binding to mrCCR5: ELISA plates (Medium binding, Greiner Bio-One) were coated with 1% BSA or 20 nM of recombinant mouse CCR5 (MyBioSource) in PBS overnight at 4° C. Then, wells were blocked for 1 h at room temperature with 1% BSA in PBS containing 0.05% Tween-20 (PBS-T). Wells were washed 3 times with PBS-T and further incubated with hNAMPTcif at increasing concentration (0 nM to 100 nM) for 1 h in PBS-T with 0.1% BSA containing 100 nM hrNAMPT (1) (Peprotech). Bound hrNAMPT (1) molecules were detected using a biotinylated antibody for NAMPT and HRP-streptavidin (Human PBEF/Visfatin DuoSet ELISA, R&D Systems). Signals obtained on BSA-coated wells were used to remove non-specific binding for each hrNAMPT concentrations to obtain specific binding values. Specific binding data were fitted by non-linear regression with Prism 7 to obtain the half maximal inhibitory concentration (IC50) of hNAMPTnif using A450nm=A450nmMin+(A450nmMax−A450nmMin)/(1+10^(X-LogIC50)).

[3] = test system: Human primary endothelial cells derived from umbilical vein; assay: Human primary endothelial cell proliferation, CyQuant; format: cell-based; details: 20 nM; 48 hours
Protocol: as §1, with “9.” for “8.”, “endothelial” for “satellite”, “cells derived from umbilical vein” for “cells”, “hours.” for “hours. The media contained the growth factors IGF-1 and FGF-2 as well.”, “10%” for “20%”, “n=6” for “n=6-10”
Similarly, the inventors next investigated the activity of full length NAMPT, NAMPT402-491 and NAMPT422-491 on human endothelial cell proliferation. Human endothelial cells were derived from umbilical vein and treated with 20 nM full length NAMPT (NAMPT) or NAMPT variants for 48 hours.

TLR4 = target: T2, TLR4 (Homo sapiens, UniProt O00206); assay: TLR4 signalling assay in HEK-Blue TLR4 reporter cells; format: cell-based; details: 19 nM; 24 hours; plus 5 ug/ml polymyxin B; listed as NAMPTcif
T2 construct: host or cells: HEK-Blue TLR4 reporter cell line
Protocol: TLR4 receptor activation was assayed using the HEK-Blue TLR4 reporter cell line (InvivoGen). In this cell line, TLR4 and downstream NFκB signalling induces expression and secretion of alkaline phosphatase that can be quantified via colorimetric assay. HEK-Blue cells were treated for 24 hours with 19 nM of NAMPTcif or PIGF-NAMPTcif plus 5 ug/ml polymyxin B to ensure no TLR4 activation by any trace amounts of endotoxin. TLR4 activity was reported as the equivalent amount of activation by bacterial lipopolysaccharides (LPS), thus a standard curve was generated by serial dilutions of LPS from 0.01 to 20 ng/ml. Detection of alkaline phosphatase activity was performed using a QUANTI-Blue kit (InvivoGen) according to manufacturer's instructions and plates were read using a Synergy H1 plate reader (BioTek). Data were presented as equivalent LPS concentration in ng/ml. A one-way ANOVA with Dunnett's multiple comparisons test was performed to determine statistical significance.

[4] = test system: C2C12 murine myoblast cells; assay: C2C12 cell proliferation, CyQuant Proliferation Assay kit; format: cell-based, mouse; details: 48 hours
Protocol: FIG. 7. Human NAMPT variants stimulate muscle progenitor proliferation. C2C12 mouse myoblasts were treated with 20 nM full length NAMPT (NAMPT) or NAMPT variants for (NAMPTxxx-xxx, where xxx are amino acid numbers) 48 hours. Quantification of cell proliferation was performed using CyQuant Proliferation Assay kit. […] Box and whiskers denote median with minimum and maximum values. n=4-5 independent experiments per protein. Statistical significance is indicated as exact p-value. […] Significance between conditions were analysed by one-way ANOVA with Tukey post-hoc test.
Human NAMPTcif (hNAMPTcif) and truncated variants of hNAMPTcif were designed by progressively removing N-terminal regions containing positively charged amino acids. Four truncations were produced and numbered T1 to T4. Recombinant protein was produced using a bacterial expression system. hNAMPTcif variants were purified by FPLC using His-tag affinity purification. Cell proliferation assays were performed using C2C12 murine myoblast cells treated with purified recombinant hNAMPTcif variants, as well as full length NAMPT. Cells were treated with 10 nM of recombinant protein for 48 hours in DMEM supplemented with 2% foetal bovine serum at 37° C., 5% CO2. PBS treatment was used as a negative control. 10% foetal bovine serum was used as positive control. Quantification of proliferation was performed using commercially-available CyQuant Proliferation Assay kit (Thermo Fisher Scientific) according to manufacturer's instructions and read using a Synergy H1 plate reader (BioTek). Data were presented as percentage increase versus.
The heparin-binding sequence of placenta growth factor 2 (PIGF2) was fused to the N-terminus of NAMPTcif and produced using a bacterial expression system. PIGF-NAMPTcif was purified by FPLC using His-tag affinity purification followed by size exclusion chromatography. Cell proliferation assays were performed using C2C12 murine myoblast cells treated with purified recombinant NAMPTcif and full length NAMPT. Cells were treated with 2 nM, 10 nM and 20 nM concentrations of recombinant protein for 48 hours in DMEM supplemented with 2% foetal bovine serum at 37° C., 5% CO2. PBS treatment was used as a negative control. 10% foetal bovine serum was used as positive control. Quantification of proliferation was performed using commercially-available CyQuant Proliferation Assay kit (Thermo Fisher Scientific) according to manufacturer's instructions and read using a Synergy H1 plate reader (BioTek). Data were presented as percentage increase versus negative control. A two-tailed unpaired t-test was used to determine statistical significance.

T2 sequence (O00206 24-839): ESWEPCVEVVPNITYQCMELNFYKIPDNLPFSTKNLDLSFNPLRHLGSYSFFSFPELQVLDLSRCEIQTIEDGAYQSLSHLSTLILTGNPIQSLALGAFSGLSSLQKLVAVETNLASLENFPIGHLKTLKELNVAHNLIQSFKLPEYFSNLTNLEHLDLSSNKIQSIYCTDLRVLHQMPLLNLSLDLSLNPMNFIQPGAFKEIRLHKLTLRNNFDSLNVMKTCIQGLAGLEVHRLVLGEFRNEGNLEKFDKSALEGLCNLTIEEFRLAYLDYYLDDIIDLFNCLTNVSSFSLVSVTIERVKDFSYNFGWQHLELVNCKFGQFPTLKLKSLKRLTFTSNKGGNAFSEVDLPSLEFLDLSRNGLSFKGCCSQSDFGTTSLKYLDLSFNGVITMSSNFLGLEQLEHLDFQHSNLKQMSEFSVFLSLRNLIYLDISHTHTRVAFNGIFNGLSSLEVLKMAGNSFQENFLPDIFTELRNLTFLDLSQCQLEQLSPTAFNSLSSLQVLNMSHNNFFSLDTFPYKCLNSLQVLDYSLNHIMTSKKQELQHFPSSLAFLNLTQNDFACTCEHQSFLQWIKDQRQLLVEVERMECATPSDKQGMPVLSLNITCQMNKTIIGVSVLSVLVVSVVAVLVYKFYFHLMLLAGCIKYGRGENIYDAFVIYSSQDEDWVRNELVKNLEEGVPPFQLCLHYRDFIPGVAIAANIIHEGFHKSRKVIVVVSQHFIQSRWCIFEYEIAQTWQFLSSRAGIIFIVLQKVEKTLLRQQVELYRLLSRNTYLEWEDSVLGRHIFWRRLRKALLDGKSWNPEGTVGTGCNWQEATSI
T2 sequence (Q9Y6Y9 17-160 partner limits assumed): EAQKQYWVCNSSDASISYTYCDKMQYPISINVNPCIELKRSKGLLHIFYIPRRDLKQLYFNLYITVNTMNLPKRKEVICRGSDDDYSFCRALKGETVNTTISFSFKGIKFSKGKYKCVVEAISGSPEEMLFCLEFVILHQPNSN
T1 sequence (P51682 whole entry): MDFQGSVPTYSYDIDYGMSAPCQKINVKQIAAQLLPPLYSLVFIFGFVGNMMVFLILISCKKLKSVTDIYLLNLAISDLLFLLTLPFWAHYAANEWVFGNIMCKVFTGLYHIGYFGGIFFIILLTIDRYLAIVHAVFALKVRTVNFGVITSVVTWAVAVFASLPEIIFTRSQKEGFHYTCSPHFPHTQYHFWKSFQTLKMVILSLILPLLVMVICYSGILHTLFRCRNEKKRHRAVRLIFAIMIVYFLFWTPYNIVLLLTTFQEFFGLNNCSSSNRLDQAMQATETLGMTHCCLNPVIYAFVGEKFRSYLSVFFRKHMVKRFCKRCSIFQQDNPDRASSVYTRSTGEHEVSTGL

B1: NAMPT402-491: Human NAMPT cytokine finger, residues 402-491 of full length NAMPT, SEQ ID NO: 1 (protein, listed as Homo sapiens)
chain: SYVVTNGLGINVFKDPVADPNKRSKKGRLSLHRTPAGNFVTLEEGKGDLEEYGQDLLHTVFKNGKVTKSYSFDEIRKNAQLNIELEAAHH
[1]
  cell proliferation (EdU-positive cells) within the injury zone: significant increase in cell proliferation within the injury zone
[2]
  satellite cell proliferation, percentage increase vs PBS-treated control: increased satellite cell proliferation compared to full length NAMPT
Recombinant mouse CCR5
  inhibition of NAMPT binding to CCR5: inhibits the binding of NAMPT to CCR5
[3]
  endothelial cell proliferation, percentage increase vs PBS-treated control: increased endothelial cell proliferation compared to full length NAMPT and NAMPT422-491
TLR4
  TLR4 activation (equivalent LPS concentration): does not induce TLR4 activity compared to full length NAMPT; also recorded: abrogated TLR4 activity
[4]; 10 nM, compared with full length NAMPT, listed as cif
  cell proliferation, percentage increase vs PBS-treated control: stimulates satellite cell proliferation in a dose-dependent manner
[4]; 10 nM, compared with full length NAMPT, listed as hNAMPTcif
  cell proliferation, percentage increase vs PBS-treated control: enhanced stimulated satellite cell proliferation compared to full length hNAMPT
[4]; 20 nM, compared with full-length NAMPT
  cell proliferation, percentage increase vs PBS-treated control: enhanced cellular proliferation compared to full-length NAMPT
